Test results from patent publication US20100247515A1.
Substitutions are numbered along the chain they refer to. One block for each binder: values may come before it.

Tests used:
DOM1h-131-202 [1] = test: monomer/dimer self-association, AUC sedimentation equilibrium
DOM1h-131-202 [2] = test: monomer/dimer self-association, AUC sedimentation velocity
DOM1h-131-206 = test: monomer/dimer self-association, AUC sedimentation equilibrium

Kd (DOM1h-131-202 [1]): 1300 nM
Kd (DOM1h-131-202 [2]): 1000 nM
B1: DOM1h-131-202 (protein)
VH: EVQLLESGGGLVQPGGSLRLSCAASGFTFAHETMVWVRQAPGKGLEWVSHIPPDGQDPFYADSVKGRFTISRDNSKNTLYLQMNSLRAEDTAVYYCALLPKRGPWFDYWGQGTLVTVSS

Kd (DOM1h-131-206): 360000 nM
B2: DOM1h-131-206 (protein)
VH: B1 VH with Y95H
